Reference: PMC3907796

Molecular target: DAO-6H (recombinant D-amino acid oxidase with C-terminal (His)6) (UniProt P14920)
Sequence (P14920 whole entry): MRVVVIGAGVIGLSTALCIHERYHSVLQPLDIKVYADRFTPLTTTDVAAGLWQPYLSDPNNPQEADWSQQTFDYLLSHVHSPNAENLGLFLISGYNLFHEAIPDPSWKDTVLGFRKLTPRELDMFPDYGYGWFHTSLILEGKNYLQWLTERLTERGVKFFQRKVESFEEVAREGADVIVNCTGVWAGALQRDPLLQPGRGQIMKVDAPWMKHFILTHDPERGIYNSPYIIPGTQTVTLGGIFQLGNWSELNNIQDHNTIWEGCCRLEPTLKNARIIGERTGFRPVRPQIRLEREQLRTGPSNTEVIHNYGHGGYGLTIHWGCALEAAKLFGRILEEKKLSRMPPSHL

- initial velocity (V0) of DAO activity (400 nM DAO-6H, 40 mM D-alanine, 25 °C) with 0, 1, 3, 10 μM G72; V0 at 10 μM, fold of DAO alone in parentheses (mol hydrogen peroxide produced/min/g DAO): 8.06
B1: G72-6H (recombinant full-length G72 with C-terminal (His)6, refolded) (natural protein)
chain: MLEKLMGADSLQLFRSRYTLGKIYFIGFQRSILLSKSENSLNSIAKETEEGRETVTRKEGWKRRHEDGYLEMAQRHLQRSLCPWVSYLPQPYAELEEVSSHVGKVFMARNYEFLAYEASKDRRQPLERMWTCNYNQQKDQSCNHKEITSTKAE
